According to patent US20180105572A1:

Experiments:
[1] = biological target: α4β7 integrin on RPMI 8866 cells (UniProt P13612); test: cell-based or functional assay
[2] = biological target: rh integrin α4β7 (R&D Systems #5397-A30) (human) (UniProt P13612); test: α4β7-MAdCAM competition ELISA

Row | Substance | Cell Adhesion A4B7 (nM); RPMI 8866 cells adhering to plate-bound rh MAdCAM-1/Fc Chimera, MTT read-out [1] [nM] | IC50 [2] [nM]
1 | C-N cyclic peptide SEQ ID NO: 477, Cyclo(a-(N-Me-R)-S-D-T-L-a) | > 10000 | 
2 | C-N cyclic peptide SEQ ID NO: 479, cyclo<a-(N-Me-R)-S-D-T-L-n> | > 10000 | 
3 | C-N cyclic peptide SEQ ID NO: 484, cyclo<a-(N-Me-R)-S-D-T-L-e> | > 1000 | 
4 | C-N cyclic peptide SEQ ID NO: 492, cyclo<a-(N-Me-R)-S-D-T-L-f> |  | > 1000
5 | C-N cyclic peptide SEQ ID NO: 494, cyclo<f-(N-Me-R)-S-D-T-L-a> |  | > 1000
6 | C-N cyclic peptide SEQ ID NO: 495, cyclo<f-(N-Me-R)-S-D-T-L-a> | > 10000 | 
7 | C-N cyclic peptide SEQ ID NO: 496, cyclo<l-(N-Me-R)-S-D-T-L-a> |  | > 1000
8 | C-N cyclic peptide SEQ ID NO: 498, cyclo<p-(N-Me-R)-S-D-T-L-a> |  | > 1000
9 | C-N cyclic peptide SEQ ID NO: 500, cyclo<r-(N-Me-R)-S-D-T-L-a> |  | > 1000
10 | C-N cyclic peptide SEQ ID NO: 502, cyclo<A-(N-Me-R)-S-D-T-L-a> |  | > 1000
11 | C-N cyclic peptide SEQ ID NO: 503, cyclo<A-(N-Me-R)-S-D-T-L-k> |  | > 1000
12 | C-N cyclic peptide SEQ ID NO: 504, cyclo<a-(N-Me-R)-S-D-T-L-A-a> |  | > 1000

The next lines start with the values.

Row | Cell Adhesion A4B7 (nM); RPMI 8866 cells adhering to plate-bound rh MAdCAM-1/Fc Chimera, MTT read-out [1] [nM] | IC50 [2] [nM] | Substance
13 |  | > 1000 | C-N cyclic peptide SEQ ID NO: 478, cyclo<a-(N-Me-R)-S-D-T-L-n>
14 |  | > 1000 | C-N cyclic peptide SEQ ID NO: 480, cyclo<h-(N-Me-R)-S-D-T-L-a>
15 |  | > 1000 | C-N cyclic peptide SEQ ID NO: 482, cyclo<a-(N-Me-R)-S-D-T-L-e>
16 |  | > 1000 | C-N cyclic peptide SEQ ID NO: 483, cyclo<a-(N-Me-R)-S-D-T-L-e>
17 |  | > 1000 | C-N cyclic peptide SEQ ID NO: 485, cyclo<k-(N-Me-R)-S-D-T-L-a>
18 |  | > 1000 | C-N cyclic peptide SEQ ID NO: 486, cyclo<k-(N-Me-R)-S-D-T-L-a>
19 |  | > 1000 | C-N cyclic peptide SEQ ID NO: 489, cyclo<a-(N-Me-R)-S-D-T-L-l>
20 |  | > 1000 | C-N cyclic peptide SEQ ID NO: 490, cyclo<a-(N-Me-R)-S-D-T-L-h>
